Test results taken from patent US20210371516A1.
Numbering of substitutions follows the chain as printed.

B1: PTA-2357 VH4/VK2 IgG1 antibody (antibody, V domains shown)
VH: QVQLVQSGAEVKKPGASVKVSCKGSGYPFTDYTIHWVRQAPGQGLEWIGHISTYSGNTNNNQKFKGRATMTVDKSTSTAYMELRSLRSDDTAVYYCARGDYYGSFYKFEYWGQGTTVTVSS
VL: DIKMTQSPSSLSASVGDRVTITCGASENIYGALNWFQRKPGKAPKLLIYGATNLADGMPSRFSGSGSGRDFTLTISSLQPEDFATYFCQNVLSIPYTFGQGTKLEIK
B2: PTA-2357 VH2/VK2 IgG1 antibody (antibody, V domains shown)
VH: B1 VH with P41H, T91S, A92T
VL: B1 VL
B3: PTA-2357 VH2/VK3 IgG1 antibody (antibody, V domains shown)
VH: B1 VH with P41H, T91S, A92T
VL: B1 VL with K3Q
B4: PTA-2357 VH3/VK2 IgG1 antibody (antibody, V domains shown)
VH: B1 VH with A92T
VL: B1 VL
B5: PTA-2357 VH1/VK2 IgG1 antibody (antibody, V domains shown)
VH: B1 VH with A9P, V11L, P41H, T91S, A92T
VL: B1 VL
B6: PTA-2358 VH4/VK1 IgG1 antibody (antibody, V domains shown)
VH: EVQLVQSGAEVKKPGASVKLSCTASGFNIKDYYMHWVRQAPGQGLEWIGWIDPGNGDTECAPKFQGRATLTADTSISTAYLELSRLRSDDTAVYYCNAPYYSGSSHFDYWGQGTTVTVSS
VL: DIVLTQSPDSLAVSLGERATINCRASKSVSASGYSFLHWYQQKPGQPPKLLIYLASNLESGVPDRFSGSGSGTDFTLTISSLQEEDVATYYCQHSRELRTFGQGTKLEIK
B7: PTA-2358 VH5/VK2 IgG1 antibody (antibody, V domains shown)
VH: B6 VH with L20V, L70I, L81M
VL: B6 VL with E84A
B8: PTA-2358 VH5/VK1 IgG1 antibody (antibody, V domains shown)
VH: B6 VH with L20V, L70I, L81M
VL: B6 VL
B9: PTA-2358 VH4/VK2 IgG1 antibody (antibody, V domains shown)
VH: B6 VH
VL: B6 VL with E84A
B10: PTA-2358 VH2/VK2 IgG1 antibody (antibody, V domains shown)
VH: B6 VH with R38K, S77N
VL: B6 VL with E84A

Target: antigen on NCI-H187 classic small cell lung carcinoma cells (ATCC Number: CRL-5804) recognised by PTA-2357
Assay: competition flow cytometry on NCI-H187 cells against mouse PTA-2357; CHO-K1-derived

**Q.** With B1 as the binder, how does the Relative IC50 (fold of chimeric PTA-2357) read?
**A.** The Relative IC50 (fold of chimeric PTA-2357) was 1.5.

**Q.** With B2 as the binder, how does the Relative IC50 (fold of chimeric PTA-2357) read?
**A.** Its Relative IC50 (fold of chimeric PTA-2357) is 1.36.

**Q.** Which Relative IC50 (fold of chimeric PTA-2357) does the source give for B3 here?
**A.** The Relative IC50 (fold of chimeric PTA-2357) was 0.82.

**Q.** For B4, which Relative IC50 (fold of chimeric PTA-2357) is on record?
**A.** Its Relative IC50 (fold of chimeric PTA-2357) is 1.57.

**Q.** With B5 as the binder, how does the Relative IC50 (fold of chimeric PTA-2357) read?
**A.** The Relative IC50 (fold of chimeric PTA-2357) was 1.2.

Target: antigen on NCI-H187 classic small cell lung carcinoma cells (ATCC Number: CRL-5804) recognised by PTA-2357
Assay: competition flow cytometry on NCI-H187 cells against mouse PTA-2357; NS0-derived

**Q.** With B1 as the binder, how does the Relative IC50 (fold of chimeric PTA-2357) read?
**A.** Its Relative IC50 (fold of chimeric PTA-2357) is 1.34.

**Q.** With B2 as the binder, how does the Relative IC50 (fold of chimeric PTA-2357) read?
**A.** The Relative IC50 (fold of chimeric PTA-2357) was 1.16.

**Q.** B3 was tested. Which Relative IC50 (fold of chimeric PTA-2357) did it give?
**A.** Its Relative IC50 (fold of chimeric PTA-2357) is 1.23.

**Q.** With B4 as the binder, how does the Relative IC50 (fold of chimeric PTA-2357) read?
**A.** Its Relative IC50 (fold of chimeric PTA-2357) is 1.06.

**Q.** How did the Relative IC50 (fold of chimeric PTA-2357) turn out when B5 was run?
**A.** The Relative IC50 (fold of chimeric PTA-2357) was 1.06.

Target: antigen on NCI-H187 classic small cell lung carcinoma cells (ATCC Number: CRL-5804) recognised by PTA-2358
Assay: competition flow cytometry on NCI-H187 cells against mouse PTA-2358; CHO-K1-derived

**Q.** For B6, which Relative IC50 (fold of chimeric PTA-2358) is on record?
**A.** Its Relative IC50 (fold of chimeric PTA-2358) is 1.48.

**Q.** With B7 as the binder, how does the Relative IC50 (fold of chimeric PTA-2358) read?
**A.** Its Relative IC50 (fold of chimeric PTA-2358) is 1.68.

**Q.** For B8, which Relative IC50 (fold of chimeric PTA-2358) is on record?
**A.** The Relative IC50 (fold of chimeric PTA-2358) was 1.69.

**Q.** How did the Relative IC50 (fold of chimeric PTA-2358) turn out when B9 was run?
**A.** Its Relative IC50 (fold of chimeric PTA-2358) is 1.68.

**Q.** B10 was tested. Which Relative IC50 (fold of chimeric PTA-2358) did it give?
**A.** The Relative IC50 (fold of chimeric PTA-2358) was 1.29.

Target: antigen on NCI-H187 classic small cell lung carcinoma cells (ATCC Number: CRL-5804) recognised by PTA-2358
Assay: competition flow cytometry on NCI-H187 cells against mouse PTA-2358; NS0-derived

**Q.** Which Relative IC50 (fold of chimeric PTA-2358) does the source give for B6 here?
**A.** The Relative IC50 (fold of chimeric PTA-2358) was 2.65.

**Q.** Which Relative IC50 (fold of chimeric PTA-2358) does the source give for B7 here?
**A.** The Relative IC50 (fold of chimeric PTA-2358) was 1.11.

**Q.** With B8 as the binder, how does the Relative IC50 (fold of chimeric PTA-2358) read?
**A.** Its Relative IC50 (fold of chimeric PTA-2358) is 1.65.

**Q.** For B9, which Relative IC50 (fold of chimeric PTA-2358) is on record?
**A.** The Relative IC50 (fold of chimeric PTA-2358) was 1.49.

**Q.** B10 was tested. Which Relative IC50 (fold of chimeric PTA-2358) did it give?
**A.** The Relative IC50 (fold of chimeric PTA-2358) was 1.03.
